Results: paper PMC10786891, “Massively parallel profiling of RNA-targeting CRISPR-Cas13d”
Residue numbers refer to the chain shown, from its start. Names may count otherwise.

T1: EsCas13d, nuclease-dead (Eubacterium siraeum, UniProt B0MS50, R295A;H300A;R849A;H854A)
T1 sequence: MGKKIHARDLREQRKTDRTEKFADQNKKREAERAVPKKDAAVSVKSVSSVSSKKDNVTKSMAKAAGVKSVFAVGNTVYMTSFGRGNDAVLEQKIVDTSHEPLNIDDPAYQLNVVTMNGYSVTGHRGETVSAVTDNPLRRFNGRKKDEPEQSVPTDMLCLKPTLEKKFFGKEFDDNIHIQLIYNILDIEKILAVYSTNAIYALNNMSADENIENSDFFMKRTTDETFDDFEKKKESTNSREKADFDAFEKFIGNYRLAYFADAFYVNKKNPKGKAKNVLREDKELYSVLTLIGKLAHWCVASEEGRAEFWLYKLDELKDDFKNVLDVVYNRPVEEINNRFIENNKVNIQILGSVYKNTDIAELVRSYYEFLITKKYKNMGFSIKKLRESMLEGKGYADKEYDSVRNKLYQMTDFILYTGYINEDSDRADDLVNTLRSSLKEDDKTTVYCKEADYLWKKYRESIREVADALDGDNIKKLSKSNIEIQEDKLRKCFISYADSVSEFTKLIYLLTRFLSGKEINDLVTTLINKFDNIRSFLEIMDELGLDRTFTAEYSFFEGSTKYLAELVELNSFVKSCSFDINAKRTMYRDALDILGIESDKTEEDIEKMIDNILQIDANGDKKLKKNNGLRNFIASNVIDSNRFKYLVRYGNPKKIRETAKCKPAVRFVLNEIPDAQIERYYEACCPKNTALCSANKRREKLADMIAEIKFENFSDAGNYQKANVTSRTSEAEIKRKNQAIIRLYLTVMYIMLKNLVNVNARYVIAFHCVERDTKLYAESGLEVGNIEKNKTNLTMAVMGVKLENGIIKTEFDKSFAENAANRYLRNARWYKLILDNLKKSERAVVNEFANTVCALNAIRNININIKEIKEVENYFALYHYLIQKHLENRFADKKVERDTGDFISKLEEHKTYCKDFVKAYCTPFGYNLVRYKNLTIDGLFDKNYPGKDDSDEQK

B1: target 1 insC 3' of 9,insG 3' of 1 (mixed)
RNA 1: CACCCGUGCAAAAAUGCAGGGGUCUAAAACUGAGCGGAUAACCUCUCUAUGG
RNA 2: GGGAAUGGAUCCACAUCUACGAAUUCGUACCAUAGAGAGGUUACUCCGCUCAGCCGAGAUCGGAAGAGCACACGU
B2: target 1 G17A (mixed)
RNA 1: B1 RNA 1
RNA 2: GGGAAUGGAUCCACAUCUACGAAUUCGUACCAUAAAGAGGUUAUCCGCUCACCGAGAUCGGAAGAGCACACGU
B3: target 1 insU 3' of 18,insU 3' of 9 (mixed)
RNA 1: B1 RNA 1
RNA 2: GGGAAUGGAUCCACAUCUACGAAUUCGUACCAUAUGAGAGGUUAUUCCGCUCACCGAGAUCGGAAGAGCACACGU
B4: target 1 G13A,G15A (mixed)
RNA 1: B1 RNA 1
RNA 2: B2 RNA 2 with A35G, G37A, G39A
B5: target 1 insG 3' of 19,insA 3' of 3 (mixed)
RNA 1: B1 RNA 1
RNA 2: B3 RNA 2 with A34G, U35A, U46C, C48G, G49C, C50U, U51A
B6: target 1 del8,del14 (mixed)
RNA 1: B1 RNA 1
RNA 2: GGGAAUGGAUCCACAUCUACGAAUUCGUACCAUAGAGGGUUACCGCUCACCGAGAUCGGAAGAGCACACGU
B7: target 1 A1U,G17A (mixed)
RNA 1: B1 RNA 1
RNA 2: B2 RNA 2 with A51U
B8: target 1 A1C,G17A (mixed)
RNA 1: B1 RNA 1
RNA 2: B2 RNA 2 with A51C
B9: target 1 C7U,G15U (mixed)
RNA 1: B1 RNA 1
RNA 2: B2 RNA 2 with A35G, G37U, C45U
B10: target 1 insC 3' of 20,insA 3' of 10 (mixed)
RNA 1: B1 RNA 1
RNA 2: B3 RNA 2 with U33C, A34U, U35A, U45A
B11: target 1 insG 3' of 11,insG 3' of 11 (mixed)
RNA 1: B1 RNA 1
RNA 2: GGGAAUGGAUCCACAUCUACGAAUUCGUACCAUAGAGAGGUGGUAUCCGCUCACCGAGAUCGGAAGAGCACACGU
B12: target 1 C6A,U11A (mixed)
RNA 1: B1 RNA 1
RNA 2: B2 RNA 2 with A35G, U41A, C46A
B13: target 1 insG 3' of 7,insA 3' of 5 (mixed)
RNA 1: B1 RNA 1
RNA 2: B11 RNA 2 with G42U, G43A, A45C, U46G, C48G, G49A
B14: target 1 G17A,A18U (mixed)
RNA 1: B1 RNA 1
RNA 2: B2 RNA 2 with A34U
B15: target 1 insA 3' of 13,insG 3' of 1 (mixed)
RNA 1: B1 RNA 1
RNA 2: B1 RNA 2 with G40A, U41G, A43U, C44A
B16: target 1 insA 3' of 22,insC 3' of 17 (mixed)
RNA 1: B1 RNA 1
RNA 2: GGGAAUGGAUCCACAUCUACGAAUUCGUACACAUAGCAGAGGUUAUCCGCUCACCGAGAUCGGAAGAGCACACGU
B17: target 1 C7G,U8A (mixed)
RNA 1: B1 RNA 1
RNA 2: B2 RNA 2 with A35G, U44A, C45G
B18: target 1 del8,del19 (mixed)
RNA 1: B1 RNA 1
RNA 2: B6 RNA 2 with U33A, A34G, G35A, A36G, G37A
B19: target 1 complement block 6-13 (mixed)
RNA 1: B1 RNA 1
RNA 2: B2 RNA 2 with A35G, G39C, G40C, U41A, U42A, A43U, U44A, C45G, C46G
B20: target 1 insU 3' of 22,insG 3' of 8 (mixed)
RNA 1: B1 RNA 1
RNA 2: B3 RNA 2 with C31U, A32C, U33A, A34U, U35A, U46G
B21: target 1 insC 3' of 13,insG 3' of 9 (mixed)
RNA 1: B1 RNA 1
RNA 2: B11 RNA 2 with G40C, U41G, G42U, G43U, U44A, A45G
B22: target 1 A1G,G17A (mixed)
RNA 1: B1 RNA 1
RNA 2: B2 RNA 2 with A51G
B23: target 1 insU 3' of 14,insU 3' of 4 (mixed)
RNA 1: B1 RNA 1
RNA 2: B1 RNA 2 with G39U, U41G, A43U, C44A, C51U, A52C, G53A
B24: target 1 G5U,C7U (mixed)
RNA 1: B1 RNA 1
RNA 2: B2 RNA 2 with A35G, C45U, G47U
B25: target 1 C6G,U10C (mixed)
RNA 1: B1 RNA 1
RNA 2: B2 RNA 2 with A35G, U42C, C46G
B26: target 1 insC 3' of 15,insU 3' of 13 (mixed)
RNA 1: B1 RNA 1
RNA 2: B11 RNA 2 with A38C, G39A, G43U
B27: target 1 insU 3' of 7,insU 3' of 4 (mixed)
RNA 1: B1 RNA 1
RNA 2: B11 RNA 2 with G42U, G43A, A45C, C48G, G49C, C50U
B28: target 1 insC 3' of 10,insU 3' of 6 (mixed)
RNA 1: B1 RNA 1
RNA 2: B11 RNA 2 with G42U, G43C, U44A, A45U, U46C, C48U
B29: target 1 G5A,G12C (mixed)
RNA 1: B1 RNA 1
RNA 2: B2 RNA 2 with A35G, G40C, G47A
B30: target 1 insC 3' of 18,insG 3' of 4 (mixed)
RNA 1: B1 RNA 1
RNA 2: B3 RNA 2 with U35C, U46C, C48G, G49C, C50G
B31: target 1 A9U,A16C (mixed)
RNA 1: B1 RNA 1
RNA 2: B2 RNA 2 with A35G, A36C, A43U
B32: target 1 U8G,G17C (mixed)
RNA 1: B1 RNA 1
RNA 2: B2 RNA 2 with A35C, U44G
B33: target 1 C7G,A14C (mixed)
RNA 1: B1 RNA 1
RNA 2: B2 RNA 2 with A35G, A38C, C45G
B34: target 1 insG 3' of 8,insU 3' of 1 (mixed)
RNA 1: B1 RNA 1
RNA 2: B1 RNA 2 with C44U, U45G, G53U

biological target: T1, EsCas13d, nuclease-dead; experiment: crRNA (strand 1, pre-loaded); Mg2+; 40 mM Tris-HCl pH 7.5, 150 mM NaCl, 6 mM MgCl2, 1 mM DTT, 0.1% Tween-20, 0.2 mg/ml BSA; 25 C; 10 min per concentration, then washed; conditions: tags: His6-TwinStrep-SUMO cleaved; N-terminal SNAP kept (SNAP-Surface 488); label: 3' end held by stalled T7 RNA polymerase

Binder | Kd [nM]
B1 | 12.2 ± 1.2
B2 | 27.4 ± 1.7
B3 | 49 ± 8
B4 | 10.3 ± 0.8
B5 | 49 ± 5
B6 | 34.1 ± 2.7
B7 | 36 ± 10
B8 | ~45
B9 | 13.1 ± 1
B10 | 10.1 ± 0.4
B11 | 86 ± 26
B12 | 28.1 ± 1.7
B13 | 7.33 ± 0.33
B14 | 50 ± 12
B15 | 3.08 ± 0.21
B16 | 47 ± 19
B17 | 7.45 ± 0.24

Binder | Kd [nM]
B18 | 64 ± 7
B19 | 92 ± 15
B20 | 49 ± 4
B21 | 13 ± 0.9
B22 | 41 ± 8
B23 | 63 ± 13
B24 | 53 ± 6
B25 | 14.2 ± 0.4
B26 | 26 ± 5
B27 | 15.2 ± 0.6
B28 | 46 ± 5
B29 | 13.5 ± 0.5
B30 | 35.7 ± 2
B31 | 45 ± 6
B32 | 72 ± 15
B33 | 33.5 ± 2.9
B34 | 12.6 ± 0.9
